{
  "source": "patent US20210038737A1",
  "key": {"[1]": {"biological_target": "CAL PDZ domain (CALP5-His) (UniProt Q9HD26)", "experiment": "FP competition, condition B: probe FAM-…-OH (100 nM) with 500 nM CALP5-His; competitor titrated"}, "[2]": {"biological_target": "CAL PDZ domain (CALP5-His) (UniProt Q9HD26)", "experiment": "FP competition, condition A: probe peptide 26 (50 nM) with 100 nM CALP5-His; competitor titrated"}, "[3]": {"biological_target": "CAL PDZ domain (CALP5-His) (UniProt Q9HD26)", "experiment": "direct FP, condition C: 50 nM labeled peptide, CALP5-His titrated"}, "[4]": {"biological_target": "CAL PDZ domain (CALP5-His) (UniProt Q9HD26)", "experiment": "FP competition"}, "[5]": {"biological_target": "CAL PDZ domain (CALP5-His) (UniProt Q9HD26)", "experiment": "direct FP: 50 nM FITC-labeled peptide, PDZ domain titrated"}, "[6]": {"biological_target": "CAL PDZ domain (CALP5-His) (UniProt Q9HD26)", "experiment": "direct FP of FITC-labeled peptides"}, "[7]": {"biological_target": "CAL PDZ domain (CALP5-His) (UniProt Q9HD26)", "experiment": "direct FP, ratio of KD values"}, "NHERF2-PDZ2 domain": {"biological_target": "NHERF2-PDZ2 domain (UniProt Q15599)", "sequence (Q15599 150-230 limits assumed)": "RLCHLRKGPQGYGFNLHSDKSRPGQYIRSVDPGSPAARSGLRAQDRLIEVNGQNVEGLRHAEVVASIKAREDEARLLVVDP", "experiment": "direct FP: 50 nM FITC-labeled peptide, PDZ domain titrated"}, "NHERF1-PDZ1 domain": {"biological_target": "NHERF1-PDZ1 domain (UniProt O14745)", "sequence (O14745 14-94 limits assumed)": "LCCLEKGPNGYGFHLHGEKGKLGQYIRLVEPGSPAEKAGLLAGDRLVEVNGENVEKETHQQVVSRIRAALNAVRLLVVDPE", "experiment": "direct FP: 50 nM FITC-labeled peptide, PDZ domain titrated"}, "NHERF2-PDZ1 domain": {"biological_target": "NHERF2-PDZ1 domain (UniProt Q15599)", "sequence (Q15599 11-90 limits assumed)": "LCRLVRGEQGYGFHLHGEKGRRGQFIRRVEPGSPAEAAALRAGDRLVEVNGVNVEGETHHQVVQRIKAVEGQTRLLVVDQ", "experiment": "direct FP: 50 nM FITC-labeled peptide, PDZ domain titrated"}},
  "data": [
    {"substance": "peptide 20: Ac-Cys-(D-Arg)-Arg-Arg-(2-Nal)-Trp-Gln-Pen-Thr-Arg-Tle-OH", "values": [
      {"measurement": "IC50", "setting": "[1]", "result": 165, "unit": "nM"}
    ]},
    {"substance": "peptide 21: Ac-Cys-(D-Arg)-(D-Arg)-Arg-(2-Nal)-Trp-Gln-Pen-Thr-Arg-Tle-OH", "values": [
      {"measurement": "IC50", "setting": "[1]", "result": 270, "unit": "nM"}
    ]},
    {"substance": "peptide 22: Ac-Cys-Arg-(D-Arg)-Arg-(2-Nal)-Trp-Gln-Pen-Thr-Arg-Tle-OH", "values": [
      {"measurement": "IC50", "setting": "[2]", "result": 401, "unit": "nM"}
    ]},
    {"substance": "peptide 23: FAM-miniPEG-Cys-(D-Arg)-Arg-Arg-(2-Nal)-Trp-Pro-Pen-Thr-Arg-Tle-OH", "values": [
      {"measurement": "Kd", "setting": "[3]", "result": 168, "unit": "nM"}
    ]},
    {"substance": "peptide 24: Ac-Cys-(D-Arg)-Arg-Arg-(2-Nal)-Trp-Pen-Tle-Thr-Arg-Tle-OH", "values": [
      {"measurement": "fold decrease in CAL binding (vs parent, printed as peptide 22)", "setting": "[4]", "result": 2, "unit": "fold"},
      {"measurement": "IC50", "setting": "[1]", "result": 380, "unit": "nM"}
    ]},
    {"substance": "peptide 25: Ac-Cys-(D-Arg)-Arg-Arg-(2-Nal)-(Bta)-Pen-Tle-Thr-Arg-Tle-OH", "values": [
      {"measurement": "fold more potent than peptide 24 in CAL binding", "setting": "[4]", "result": 1.5, "unit": "fold"},
      {"measurement": "IC50", "setting": "[1]", "result": 235, "unit": "nM"}
    ]},
    {"substance": "peptide 26: FAM-miniPEG-Cys-(D-Arg)-Arg-Arg-(2-Nal)-(Bta)-Pen-Tle-Thr-Arg-Tle-OH", "values": [
      {"measurement": "Kd", "setting": "[3]", "result": 49, "unit": "nM"}
    ]},
    {"substance": "peptide 27-FITC: FITC-miniPEG-Cys-(D-Arg)-Arg-Arg-Nal-Trp-Pro-Pen-Thr-Arg-Tle-OH", "values": [
      {"measurement": "Kd", "setting": "[5]", "result": 179, "unit": "nM"}
    ]},
    {"substance": "peptide 28-FITC: FITC-miniPEG-Cys-(D-Arg)-Arg-Arg-Nal-Bta-Pro-Pen-Thr-Arg-Tle-OH", "values": [
      {"measurement": "Kd", "setting": "[5]", "result": 87, "unit": "nM"}
    ]},
    {"substance": "peptide 29-FITC: FITC-miniPEG-Cys-(D-Arg)-Arg-Arg-Nal-Bta-Pip-Pen-Thr-Arg-Tle-OH", "values": [
      {"measurement": "fold improvement of CAL PDZ-binding affinity (Pip for Pro, vs peptide 28)", "setting": "[6]", "result": 15, "unit": "fold"},
      {"measurement": "fold selectivity for CAL PDZ over NHERF1/2 PDZ domains", "setting": "[7]", "result": "> 130", "unit": "fold"},
      {"measurement": "Kd", "setting": "[5]", "result": 6, "unit": "nM"},
      {"measurement": "Kd", "setting": "NHERF2-PDZ2 domain", "result": 7480, "unit": "nM"},
      {"measurement": "Kd", "setting": "NHERF1-PDZ1 domain", "result": 780, "unit": "nM"},
      {"measurement": "Kd", "setting": "NHERF2-PDZ1 domain", "result": 1370, "unit": "nM"}
    ]}
  ]
}
